Experiment [1] concerns the target T1, human von Hippel-Lindau tumor suppressor protein pVHL (19 kDa) (human, UniProt P40337-3 1-160).
T1 construct: numbers count on: the 30 kDa isoform (Y98, W117 and so on)
Kind of experiment: ELISA; ELISA-based binding assay: pVHL or dVHL (10 µg/ml, 500 nM, in 10 mM Tris-HCl pH 8, 200 mM NaCl, 200 mM GnHCl) coated on the plate overnight at 4°C, blocked with 5% BSA; TAMRA-labelled peptide at increasing concentrations, 1 h at 25°C; fluorescence at 580 nm, after subtraction of the BSA control. The following applies: both partners purified. Background: In an ELISA, binding on a coated surface is turned into a signal by an enzyme label.

The target of experiment [2] is T2, Drosophila von Hippel-Lindau protein dVHL (Drosophila melanogaster, UniProt Q9V3C1 1-178).
T2 construct: Drosophila melanogaster VHL (dVHL), ORF re-engineered to E. coli codon usage, cloned in pET14b (NdeI/XhoI); migrated as a 19 kDa protein; also called Drosophila VHL
T2 sequence (looked up): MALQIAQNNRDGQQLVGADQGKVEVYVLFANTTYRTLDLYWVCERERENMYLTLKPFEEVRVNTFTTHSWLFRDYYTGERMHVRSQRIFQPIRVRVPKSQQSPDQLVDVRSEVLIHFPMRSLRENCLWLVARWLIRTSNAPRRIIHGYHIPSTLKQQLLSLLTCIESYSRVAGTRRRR
The description is as above. The note with it: both partners purified.

Where no end group is shown, it is not given here. [ ]: non-standard residue; d: D form. Hyp = O=C(O)[C@@H]1C[C@@H](O)CN1

T1 sequence (P40337 54-213): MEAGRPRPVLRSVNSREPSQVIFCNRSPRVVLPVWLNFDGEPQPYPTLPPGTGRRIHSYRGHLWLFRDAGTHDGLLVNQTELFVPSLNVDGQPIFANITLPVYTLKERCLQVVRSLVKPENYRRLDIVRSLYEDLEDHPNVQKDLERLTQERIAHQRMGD

B1: Hyp402-ODD-HIF peptide (HIF1-α residues 395-413, hydroxyproline 402, TAMRA-labelled) (peptide)
peptide: DALTLLA[Hyp]AAGDTIISLDF
modifications: also: TAMRA label, position not given here
notes: human HIF1-α, residues 395-413 of the oxygen dependent degradation domain; also called HIF1-α P402; HIF1-α-derived peptide; source: synthetic peptide (Hy Laboratory Ltd, Israel)
For the molecule B1, in experiment [1], the “fold stronger binding than to dVHL” value is approximately 1.5 fold. The binding result in experiment [2] is recorded as “binds”.

B2: Hyp850-ODD-SIMA peptide (SIMA residues 841-857, hydroxyproline 850, TAMRA-labelled) (peptide)
peptide: SFEAFAGRA[Hyp]YIPIDDD
modifications: also: TAMRA label, position not given here
notes: Drosophila SIMA (fly homolog of HIF1-α), residues 841-857 of its ODD; The peptide has two prolines (P850 and P853); by its name the hydroxylated one is P850; also called SIMA-derived peptide; source: synthetic peptide (Hy Laboratory Ltd, Israel)
In the case of B2, the “fold stronger binding than to dVHL” value in experiment [1] is approximately 1.5 fold. Besides, the binding result in experiment [2] is “binds”.

Values taken from PMC4195687, “Computational and Experimental Characterization of dVHL Establish a Drosophila Model of VHL Syndrome” (PLoS ONE, 2014).
